Data as given in doi:10.1101/647354.

Target: complement C5 (human) (UniProt P01031)
Assay: SPR

Sequence of complement C5 (human) (P01031 19-673, chain 1 of 2): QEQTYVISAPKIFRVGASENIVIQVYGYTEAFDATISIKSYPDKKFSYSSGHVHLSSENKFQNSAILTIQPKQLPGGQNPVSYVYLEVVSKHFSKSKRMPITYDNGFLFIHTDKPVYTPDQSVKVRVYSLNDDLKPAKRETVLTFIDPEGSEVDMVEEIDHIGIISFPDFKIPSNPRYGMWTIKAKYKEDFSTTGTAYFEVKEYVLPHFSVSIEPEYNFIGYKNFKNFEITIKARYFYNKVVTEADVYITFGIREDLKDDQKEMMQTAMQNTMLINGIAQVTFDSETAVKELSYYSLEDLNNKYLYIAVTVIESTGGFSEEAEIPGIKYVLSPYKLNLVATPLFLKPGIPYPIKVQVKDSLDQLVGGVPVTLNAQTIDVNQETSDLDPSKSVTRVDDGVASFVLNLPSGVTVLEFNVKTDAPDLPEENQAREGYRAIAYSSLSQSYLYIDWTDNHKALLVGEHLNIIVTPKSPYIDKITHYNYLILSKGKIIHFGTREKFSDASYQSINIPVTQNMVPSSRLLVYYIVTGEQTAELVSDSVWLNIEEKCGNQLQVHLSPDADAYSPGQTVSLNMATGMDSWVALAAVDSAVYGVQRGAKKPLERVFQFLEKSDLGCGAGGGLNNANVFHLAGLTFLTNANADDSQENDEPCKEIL
Sequence of complement C5 (human) (P01031 678-1676, chain 2 of 2): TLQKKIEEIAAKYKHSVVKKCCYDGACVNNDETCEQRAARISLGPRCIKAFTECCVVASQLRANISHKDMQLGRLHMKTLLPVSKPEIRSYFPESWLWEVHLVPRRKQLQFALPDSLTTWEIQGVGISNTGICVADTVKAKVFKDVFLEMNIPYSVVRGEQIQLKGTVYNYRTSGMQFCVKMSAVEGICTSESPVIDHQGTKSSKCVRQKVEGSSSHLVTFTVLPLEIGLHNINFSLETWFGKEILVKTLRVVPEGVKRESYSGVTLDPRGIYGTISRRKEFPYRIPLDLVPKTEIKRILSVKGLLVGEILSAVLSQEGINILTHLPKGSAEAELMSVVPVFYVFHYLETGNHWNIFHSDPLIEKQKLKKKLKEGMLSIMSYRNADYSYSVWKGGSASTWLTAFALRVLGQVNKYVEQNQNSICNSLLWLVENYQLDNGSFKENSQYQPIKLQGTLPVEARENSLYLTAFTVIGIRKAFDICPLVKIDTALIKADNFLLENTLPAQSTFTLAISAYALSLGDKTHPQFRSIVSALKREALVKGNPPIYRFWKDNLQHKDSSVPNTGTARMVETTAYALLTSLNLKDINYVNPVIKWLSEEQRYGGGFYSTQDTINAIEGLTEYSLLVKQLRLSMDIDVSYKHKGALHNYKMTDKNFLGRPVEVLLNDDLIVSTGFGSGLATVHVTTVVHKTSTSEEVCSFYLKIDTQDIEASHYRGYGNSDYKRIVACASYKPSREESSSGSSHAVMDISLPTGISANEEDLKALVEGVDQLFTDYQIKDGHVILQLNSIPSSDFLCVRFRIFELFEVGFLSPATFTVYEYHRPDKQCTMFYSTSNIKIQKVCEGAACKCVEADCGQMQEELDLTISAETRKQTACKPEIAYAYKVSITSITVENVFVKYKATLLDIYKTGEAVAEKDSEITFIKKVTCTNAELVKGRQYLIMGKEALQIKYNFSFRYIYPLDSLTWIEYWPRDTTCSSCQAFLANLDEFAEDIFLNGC

With “CirpT1 (Complement Inhibitor from Rhipicephalus pulchellus of the Terminal Pathway 1) (natural protein)” the Kd was 10 nM.
